Target: WDR5-RbBP5-Ash2L subcomplex (UniProt P61964)

Q: How did the “H3K4 dimethylation activity of the MLL1 core complex (MALDI-TOF mass spectrometry)” value turn out when MLL^3745(R3765A) was run?
A: The value was “a loss of H3K4 dimethylation activity of the MLL1 core complex when Arg-3765 of the MLL1 component is replaced by an alanine”.
